Source: US12180519B2, “Cocaine esterase mutant and use thereof” (Hangzhou Normal University, priority 2021, dated 2024)

Assay: Enzyme activity analysis: in vitro catalytic reaction of CocE enzymes to substrate BZE (HPLC, Michaelis-Menten)
Format: biochemical
Settings: for RCE, ratio of catalytic efficiency of the mutant enzyme to BZE and that of the wildtype enzyme / Km / kcat: substrate BZE; for Km / kcat: 25° C., 0.1 M phosphate buffer pH 7.4
Source text: Firstly, an experimental method for detecting a substrate BZE and a product benzoic acid BA by HPLC was established. Both BZE and BA had strong ultraviolet absorption at 230 nm. In HPLC analysis, acetonitrile and 0.1% formic acid were used as mobile phases to separate BZE and BA by C18 liquid chromatography column. The absorption of BZE and BA at wavelength 230 nm was detected by an ultraviolet detector, and linear standard curves of BZE and BA were obtained. The activity of BZE reaction catalyzed by CocE was determined, and the reaction temperature was 25° C., with three repetitions in each group. An enzymatic reaction was started by 50 μL of substrate BZE solution with 50 μL of enzyme solution (diluted with 0.1 M phosphate buffer (pH 7.4)).
50 μL of 10% perchloric acid was added to stop the reaction, and then, 50 μL of acetonitrile was added, and the mixture was centrifuged at 12,000 rpm for 5 minutes. Then, the supernatant was diluted to an appropriate multiple and injected into […]. The peak time, peak areas and curves of BZE and BA were compared, and the residual BZE concentration and the BA concentration in the reaction sample were calculated. The kcat and KM of each mutant could be obtained by calculating the reaction rates of BA catalyzed by enzyme at different substrate concentrations, drawing a kinetic curve of the enzyme reaction with GraphPad Prism 8, and performing Michaelis-Menten kinetic analysis.

B1: Wildtype WT: wildtype bacterial cocaine esterase, amino acid sequence SEQ ID No. 1 (protein, listed as Rhodococcus sp.)
chain: MVDGNYSVASNVMVPMRDGVRLAVDLYRPDADGPVPVLLVRNPYDKFDVFAWSTQSTNWLEFVRDGYAVVIQDTRGLFASEGEFVPHVDDEADAEDTLSWILEQAWCDGNVGMFGVSYLGVTQWQAAVSGVGGLKAIAPSMASADLYRAPWYGPGGALSVEALLGWSALIGRQLITSRSDARPEDAADFVQLAAICNDVAGAASVTPLAEQPLLGRLIPWVIDQVVDHPDNDESWQSISLFERLGGLATPALITAGWYDGFVGESLRTFVAVKDNADARLVVGPWSHSNLTGRNADRKFGCAATYPIQEATTMHKAFFDRHLRGETDALAGVPKVRLFVMGIDEWRDETDWPLPDTAYTPFYLGGSGAANTSTGGGTLSTSISGTESADTYLYDPADPVPSLGGTLLFHNGDNGPADQRPIHDRDDVLCYSTEVLTDPVEVTGTVSARLFVSSSAVDTDFTAKLVDVFPDGRAIALCDGIVRMRYRETLVNPTLIEAGEIYEVAIDMLATSNVFLPGHRIMVQVSSSNFPKYDRNSNTGGVIAREQLEEMCTAVNRIHRGPEHPSHIVLPIIKR
  RCE, ratio of catalytic efficiency of the mutant enzyme to BZE and that of the wildtype enzyme: 1.0
  Km: 5150 µM
  kcat: 5.02 s⁻¹

B2: T172R/G173Q/L196C/I301C/V116K: cocaine esterase mutant of SEQ ID No. 1 with the named mutations (protein, UniProt Q9L9D7 1-574, looked up, variant T172R G173Q L196C I301C V116K)
Cocaine esterase: MVDGNYSVASNVMVPMRDGVRLAVDLYRPDADGPVPVLLVRNPYDKFDVFAWSTQSTNWLEFVRDGYAVVIQDTRGLFASEGEFVPHVDDEADAEDTLSWILEQAWCDGNVGMFGKSYLGVTQWQAAVSGVGGLKAIAPSMASADLYRAPWYGPGGALSVEALLGWSALIGRQLITSRSDARPEDAADFVQLAAICNDVAGAASVTPLAEQPLLGRLIPWVIDQVVDHPDNDESWQSISLFERLGGLATPALITAGWYDGFVGESLRTFVAVKDNADARLVVGPWSHSNLTGRNADRKFGCAATYPIQEATTMHKAFFDRHLRGETDALAGVPKVRLFVMGIDEWRDETDWPLPDTAYTPFYLGGSGAANTSTGGGTLSTSISGTESADTYLYDPADPVPSLGGTLLFHNGDNGPADQRPIHDRDDVLCYSTEVLTDPVEVTGTVSARLFVSSSAVDTDFTAKLVDVFPDGRAIALCDGIVRMRYRETLVNPTLIEAGEIYEVAIDMLATSNVFLPGHRIMVQVSSSNFPKYDRNSNTGGVIAREQLEEMCTAVNRIHRGPEHPSHIVLPIIKR
  RCE, ratio of catalytic efficiency of the mutant enzyme to BZE and that of the wildtype enzyme: 210.3
  Km: 46.3 µM
  kcat: 9.477 s⁻¹

B3: T172R/G173Q/L196C/I301C/V116K/A51F: cocaine esterase mutant of SEQ ID No. 1 with the named mutations (protein, UniProt Q9L9D7 1-574, looked up, variant T172R G173Q L196C I301C V116K A51F)
Cocaine esterase: MVDGNYSVASNVMVPMRDGVRLAVDLYRPDADGPVPVLLVRNPYDKFDVFFWSTQSTNWLEFVRDGYAVVIQDTRGLFASEGEFVPHVDDEADAEDTLSWILEQAWCDGNVGMFGKSYLGVTQWQAAVSGVGGLKAIAPSMASADLYRAPWYGPGGALSVEALLGWSALIGRQLITSRSDARPEDAADFVQLAAICNDVAGAASVTPLAEQPLLGRLIPWVIDQVVDHPDNDESWQSISLFERLGGLATPALITAGWYDGFVGESLRTFVAVKDNADARLVVGPWSHSNLTGRNADRKFGCAATYPIQEATTMHKAFFDRHLRGETDALAGVPKVRLFVMGIDEWRDETDWPLPDTAYTPFYLGGSGAANTSTGGGTLSTSISGTESADTYLYDPADPVPSLGGTLLFHNGDNGPADQRPIHDRDDVLCYSTEVLTDPVEVTGTVSARLFVSSSAVDTDFTAKLVDVFPDGRAIALCDGIVRMRYRETLVNPTLIEAGEIYEVAIDMLATSNVFLPGHRIMVQVSSSNFPKYDRNSNTGGVIAREQLEEMCTAVNRIHRGPEHPSHIVLPIIKR
  RCE, ratio of catalytic efficiency of the mutant enzyme to BZE and that of the wildtype enzyme: 211.8
  Km: 59.3 µM
  kcat: 12.23 s⁻¹

B4: T172R/G173Q/L196C/I301C/V116K/A51W: cocaine esterase mutant of SEQ ID No. 1 with the named mutations (protein, UniProt Q9L9D7 1-574, looked up, variant T172R G173Q L196C I301C V116K A51W)
Cocaine esterase: MVDGNYSVASNVMVPMRDGVRLAVDLYRPDADGPVPVLLVRNPYDKFDVFWWSTQSTNWLEFVRDGYAVVIQDTRGLFASEGEFVPHVDDEADAEDTLSWILEQAWCDGNVGMFGKSYLGVTQWQAAVSGVGGLKAIAPSMASADLYRAPWYGPGGALSVEALLGWSALIGRQLITSRSDARPEDAADFVQLAAICNDVAGAASVTPLAEQPLLGRLIPWVIDQVVDHPDNDESWQSISLFERLGGLATPALITAGWYDGFVGESLRTFVAVKDNADARLVVGPWSHSNLTGRNADRKFGCAATYPIQEATTMHKAFFDRHLRGETDALAGVPKVRLFVMGIDEWRDETDWPLPDTAYTPFYLGGSGAANTSTGGGTLSTSISGTESADTYLYDPADPVPSLGGTLLFHNGDNGPADQRPIHDRDDVLCYSTEVLTDPVEVTGTVSARLFVSSSAVDTDFTAKLVDVFPDGRAIALCDGIVRMRYRETLVNPTLIEAGEIYEVAIDMLATSNVFLPGHRIMVQVSSSNFPKYDRNSNTGGVIAREQLEEMCTAVNRIHRGPEHPSHIVLPIIKR
  RCE, ratio of catalytic efficiency of the mutant enzyme to BZE and that of the wildtype enzyme: 132.5
  Km: 95.6 µM
  kcat: 12.34 s⁻¹

B5: T172R/G173Q/L196C/I301C: cocaine esterase mutant with the named mutations, comparator without V116K (protein, listed as Rhodococcus sp.)
chain: MVDGNYSVASNVMVPMRDGVRLAVDLYRPDADGPVPVLLVRNPYDKFDVFAWSTQSTNWLEFVRDGYAVVIQDTRGLFASEGEFVPHVDDEADAEDTLSWILEQAWCDGNVGMFGVSYLGVTQWQAAVSGVGGLKAIAPSMASADLYRAPWYGPGGALSVEALLGWSALIGRQLITSRSDARPEDAADFVQLAAICNDVAGAASVTPLAEQPLLGRLIPWVIDQVVDHPDNDESWQSISLFERLGGLATPALITAGWYDGFVGESLRTFVAVKDNADARLVVGPWSHSNLTGRNADRKFGCAATYPIQEATTMHKAFFDRHLRGETDALAGVPKVRLFVMGIDEWRDETDWPLPDTAYTPFYLGGSGAANTSTGGGTLSTSISGTESADTYLYDPADPVPSLGGTLLFHNGDNGPADQRPIHDRDDVLCYSTEVLTDPVEVTGTVSARLFVSSSAVDTDFTAKLVDVFPDGRAIALCDGIVRMRYRETLVNPTLIEAGEIYEVAIDMLATSNVFLPGHRIMVQVSSSNFPKYDRNSNTGGVIAREQLEEMCTAVNRIHRGPEHPSHIVLPIIKR
  RCE, ratio of catalytic efficiency of the mutant enzyme to BZE and that of the wildtype enzyme: 2.6
  Km: 3710 µM
  kcat: 9.278 s⁻¹

B6: T172R/G173Q/L196C/I301C/V116K/A51Y: cocaine esterase mutant of SEQ ID No. 1 with the named mutations (protein, UniProt Q9L9D7 1-574, looked up, variant T172R G173Q L196C I301C V116K A51Y)
Cocaine esterase: MVDGNYSVASNVMVPMRDGVRLAVDLYRPDADGPVPVLLVRNPYDKFDVFYWSTQSTNWLEFVRDGYAVVIQDTRGLFASEGEFVPHVDDEADAEDTLSWILEQAWCDGNVGMFGKSYLGVTQWQAAVSGVGGLKAIAPSMASADLYRAPWYGPGGALSVEALLGWSALIGRQLITSRSDARPEDAADFVQLAAICNDVAGAASVTPLAEQPLLGRLIPWVIDQVVDHPDNDESWQSISLFERLGGLATPALITAGWYDGFVGESLRTFVAVKDNADARLVVGPWSHSNLTGRNADRKFGCAATYPIQEATTMHKAFFDRHLRGETDALAGVPKVRLFVMGIDEWRDETDWPLPDTAYTPFYLGGSGAANTSTGGGTLSTSISGTESADTYLYDPADPVPSLGGTLLFHNGDNGPADQRPIHDRDDVLCYSTEVLTDPVEVTGTVSARLFVSSSAVDTDFTAKLVDVFPDGRAIALCDGIVRMRYRETLVNPTLIEAGEIYEVAIDMLATSNVFLPGHRIMVQVSSSNFPKYDRNSNTGGVIAREQLEEMCTAVNRIHRGPEHPSHIVLPIIKR
  RCE, ratio of catalytic efficiency of the mutant enzyme to BZE and that of the wildtype enzyme: 357.4
  Km: 43.6 µM
  kcat: 15.18 s⁻¹

B7: V116K: cocaine esterase mutant, 116th valine mutated into lysine (protein, listed as Rhodococcus sp.)
chain: MVDGNYSVASNVMVPMRDGVRLAVDLYRPDADGPVPVLLVRNPYDKFDVFAWSTQSTNWLEFVRDGYAVVIQDTRGLFASEGEFVPHVDDEADAEDTLSWILEQAWCDGNVGMFGKSYLGVTQWQAAVSGVGGLKAIAPSMASADLYRAPWYGPGGALSVEALLGWSALIGRQLITSRSDARPEDAADFVQLAAICNDVAGAASVTPLAEQPLLGRLIPWVIDQVVDHPDNDESWQSISLFERLGGLATPALITAGWYDGFVGESLRTFVAVKDNADARLVVGPWSHSNLTGRNADRKFGCAATYPIQEATTMHKAFFDRHLRGETDALAGVPKVRLFVMGIDEWRDETDWPLPDTAYTPFYLGGSGAANTSTGGGTLSTSISGTESADTYLYDPADPVPSLGGTLLFHNGDNGPADQRPIHDRDDVLCYSTEVLTDPVEVTGTVSARLFVSSSAVDTDFTAKLVDVFPDGRAIALCDGIVRMRYRETLVNPTLIEAGEIYEVAIDMLATSNVFLPGHRIMVQVSSSNFPKYDRNSNTGGVIAREQLEEMCTAVNRIHRGPEHPSHIVLPIIKR
  catalytic efficiency on benzoylecgonine compared with the wildtype enzyme (in words): greatly improved
  RCE, ratio of catalytic efficiency of the mutant enzyme to BZE and that of the wildtype enzyme: 61.2
  Km: 89.6 µM
  kcat: 5.34 s⁻¹
